Experimental findings from publication PMC9482650, “Quantitative fragmentomics allow affinity mapping of interactomes” (Nature Communications, 2022) are described below.

Among the targets are MAGI2_6, Q86UL8; DLG4_1, P78352; CASK, O14936; ARHGEF12, Q9NZN5-2; PTPN3, P26045; Inadl_4, Q8NI35; FRMPD2_2, Q68DX3; GRIP2_4, Q9C0E4; PDLIM1, O00151; MAST2, Q6P0Q8.
What all share (experiment): holdup assay
Holding throughout (set-up): key: below the threshold = too weak to quantify, mostly under pKd 3.1 to 4

In the next assay the target is T1, ARHGAP21, Q5T5U3.
T1 sequence (Q5T5U3 45-169, limits assumed, looked up): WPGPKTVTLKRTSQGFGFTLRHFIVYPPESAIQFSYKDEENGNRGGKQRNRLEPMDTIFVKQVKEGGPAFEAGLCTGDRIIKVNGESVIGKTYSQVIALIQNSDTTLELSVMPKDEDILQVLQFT

For another assay, the target named is T2, SNTB1, Q13884.
T2 sequence (Q13884 107-205, limits assumed, looked up): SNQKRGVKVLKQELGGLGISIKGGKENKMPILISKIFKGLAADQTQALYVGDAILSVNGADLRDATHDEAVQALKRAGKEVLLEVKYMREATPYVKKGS

The target of the next assay is T3, LIN7B, Q9HAP6.
T3 sequence (Q9HAP6 88-185, limits assumed, looked up): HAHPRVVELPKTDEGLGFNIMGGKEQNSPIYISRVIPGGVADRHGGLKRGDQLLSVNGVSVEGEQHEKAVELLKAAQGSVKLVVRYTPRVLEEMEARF

The target in the next assay is T4, SIPA1L2, Q9P2F8.
T4 sequence (Q9P2F8 945-1036, limits assumed, looked up): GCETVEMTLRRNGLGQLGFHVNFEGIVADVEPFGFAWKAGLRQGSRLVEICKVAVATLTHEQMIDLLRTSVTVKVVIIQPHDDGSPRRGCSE

The target in a further assay is T5, PDZD7_3, Q9H5P4.
T5 sequence (Q9H5P4 857-944, limits assumed, looked up): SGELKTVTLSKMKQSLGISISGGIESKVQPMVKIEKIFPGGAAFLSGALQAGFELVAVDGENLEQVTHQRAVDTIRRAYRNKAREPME

The next assay addresses T6, NHERF3_3, Q5T2W1.
T6 sequence (Q5T2W1 238-333, limits assumed, looked up): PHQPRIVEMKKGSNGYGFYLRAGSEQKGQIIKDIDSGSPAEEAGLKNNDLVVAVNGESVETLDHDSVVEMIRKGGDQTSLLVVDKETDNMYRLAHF

In another assay the target is T7, MPP2, Q14168.
T7 sequence (Q14168 180-250, limits assumed, looked up): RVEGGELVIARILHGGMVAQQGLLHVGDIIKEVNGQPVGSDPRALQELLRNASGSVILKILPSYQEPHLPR

A further assay addresses T8, APBA1_2, Q02410.
T8 sequence (Q02410 742-832, limits assumed, looked up): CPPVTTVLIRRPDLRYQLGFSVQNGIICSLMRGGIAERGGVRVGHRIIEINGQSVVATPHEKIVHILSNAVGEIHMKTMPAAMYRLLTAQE

The target of the next assay is T9, TX1BP3, O14907.
T9 sequence (O14907 10-122, limits assumed, looked up): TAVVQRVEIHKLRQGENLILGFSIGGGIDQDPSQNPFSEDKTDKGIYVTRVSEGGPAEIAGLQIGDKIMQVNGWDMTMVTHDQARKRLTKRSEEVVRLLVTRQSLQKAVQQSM

For another assay, the target named is T10, NHERF3_4, Q5T2W1.
T10 sequence (Q5T2W1 373-468, limits assumed, looked up): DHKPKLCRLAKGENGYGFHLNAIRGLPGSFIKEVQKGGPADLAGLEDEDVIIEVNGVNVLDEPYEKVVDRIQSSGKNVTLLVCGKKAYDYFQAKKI

The next assay concerns the target T11, APBA2_2, Q99767.
T11 sequence (Q99767 654-744, limits assumed, looked up): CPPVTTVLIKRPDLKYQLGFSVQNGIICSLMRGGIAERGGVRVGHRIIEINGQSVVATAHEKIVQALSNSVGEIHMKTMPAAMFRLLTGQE

Another assay concerns the target T12, MPDZ_5, O75970.
T12 sequence (O75970 695-796, limits assumed, looked up): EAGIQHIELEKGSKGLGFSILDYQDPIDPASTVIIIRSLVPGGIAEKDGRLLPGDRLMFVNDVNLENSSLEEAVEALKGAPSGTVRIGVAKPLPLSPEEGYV

In the next assay the target is T13, GRIP1_5, Q9Y3R0.
T13 sequence (Q9Y3R0 568-668, limits assumed, looked up): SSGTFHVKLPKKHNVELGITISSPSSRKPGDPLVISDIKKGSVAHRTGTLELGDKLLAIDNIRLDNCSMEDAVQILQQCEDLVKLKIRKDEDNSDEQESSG

The next assay addresses T14, MPP7, Q5T2T1.
T14 sequence (Q5T2T1 134-230, limits assumed, looked up): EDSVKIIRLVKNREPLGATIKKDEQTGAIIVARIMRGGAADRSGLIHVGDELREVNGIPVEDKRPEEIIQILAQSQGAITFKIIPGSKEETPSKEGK

[1] abbreviates: plain residues with an end cap or a label only (N-terminal biotin on a linker: ado-ado).
Where [2] appears, read: plain residues with an end cap or a label only (N-terminal biotin on a linker: ahx).

FRMPD2_2, Q68DX3, sequence (Q68DX3 944-1038): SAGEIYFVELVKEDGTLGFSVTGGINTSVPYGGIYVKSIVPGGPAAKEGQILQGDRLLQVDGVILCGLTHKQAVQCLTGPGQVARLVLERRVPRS
DLG4_1, P78352, sequence (P78352 62-152): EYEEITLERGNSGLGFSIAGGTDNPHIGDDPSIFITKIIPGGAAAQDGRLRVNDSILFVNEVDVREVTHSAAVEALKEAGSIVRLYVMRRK
Inadl_4, Q8NI35, sequence (Q8NI35 547-651): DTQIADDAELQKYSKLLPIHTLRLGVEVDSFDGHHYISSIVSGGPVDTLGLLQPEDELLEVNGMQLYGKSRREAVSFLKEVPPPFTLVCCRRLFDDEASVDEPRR
PTPN3, P26045, sequence (P26045 505-587): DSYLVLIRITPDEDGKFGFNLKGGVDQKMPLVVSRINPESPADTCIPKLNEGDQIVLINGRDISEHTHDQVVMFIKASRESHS
GRIP2_4, Q9C0E4, sequence (Q9C0E4 446-548): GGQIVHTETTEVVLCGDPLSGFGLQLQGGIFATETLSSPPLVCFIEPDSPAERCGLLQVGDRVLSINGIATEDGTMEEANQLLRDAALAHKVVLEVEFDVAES
PDLIM1, O00151, sequence (O00151 1-87): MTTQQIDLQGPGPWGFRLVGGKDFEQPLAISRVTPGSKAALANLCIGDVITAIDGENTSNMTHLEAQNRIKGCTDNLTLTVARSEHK
MAGI2_6, Q86UL8, sequence (Q86UL8 1141-1229): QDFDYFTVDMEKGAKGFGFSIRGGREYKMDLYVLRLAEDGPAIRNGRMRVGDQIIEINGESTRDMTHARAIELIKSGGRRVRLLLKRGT
MAST2, Q6P0Q8, sequence (Q6P0Q8 1099-1202): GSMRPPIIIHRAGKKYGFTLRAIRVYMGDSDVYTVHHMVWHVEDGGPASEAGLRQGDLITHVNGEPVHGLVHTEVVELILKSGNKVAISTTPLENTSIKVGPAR
ARHGEF12, Q9NZN5-2, sequence (Q9NZN5 other isoform, or with tags, fused parts or gaps): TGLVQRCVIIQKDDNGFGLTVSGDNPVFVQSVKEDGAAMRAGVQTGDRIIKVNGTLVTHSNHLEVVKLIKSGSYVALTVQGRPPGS
CASK, O14936, sequence (O14936 487-570): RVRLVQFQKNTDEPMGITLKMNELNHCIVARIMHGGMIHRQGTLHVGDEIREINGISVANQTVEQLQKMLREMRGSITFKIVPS

On to MHIQEKGFHV [EPHA6, Q9UF33], for which the negative-log Kd (pKd) result in the assay with ARHGAP21, Q5T5U3 (setting [1]) is listed as “below the threshold”; in the assay with MAGI2_6, Q86UL8 (setting [1]), “below the threshold”; with SNTB1, Q13884 (setting [1]) it was “below the threshold”; with LIN7B, Q9HAP6 (setting [1]) it was “below the threshold”; with SIPA1L2, Q9P2F8 (setting [1]) it was “below the threshold”; in the assay with PDZD7_3, Q9H5P4 (setting [1]) it was “below the threshold”. Moreover, the pKd result with NHERF3_3, Q5T2W1 (setting [1]) is on record as “below the threshold”; with DLG4_1, P78352 (setting [1]), “below the threshold”; with CASK, O14936 (setting [1]), “below the threshold”; with ARHGEF12, Q9NZN5-2 (setting [1]), “below the threshold”; with PTPN3, P26045 (setting [1]), “below the threshold”; with Inadl_4, Q8NI35 (setting [1]) it was “below the threshold”. In addition, the pKd entry with MPP2, Q14168 (setting [1]) is recorded as “below the threshold”; in the assay with FRMPD2_2, Q68DX3 (setting [1]), “below the threshold”; in the assay with APBA1_2, Q02410 (setting [1]) it was “below the threshold”; with TX1BP3, O14907 (setting [1]) it was “below the threshold”; with NHERF3_4, Q5T2W1 (setting [1]), “below the threshold”; with APBA2_2, Q99767 (setting [1]) it was “below the threshold”. The negative logarithm of the Kd (pKd) result in the assay with GRIP2_4, Q9C0E4 (setting [1]) was “below the threshold”; with PDLIM1, O00151 (setting [1]), “below the threshold”; in the assay with MPDZ_5, O75970 (setting [1]), “below the threshold”; with GRIP1_5, Q9Y3R0 (setting [1]), “below the threshold”; in the assay with MPP7, Q5T2T1 (setting [1]) it was “below the threshold”; with MAST2, Q6P0Q8 (setting [1]), “below the threshold”.
Regarding SLNANEVEWF [RNF130, Q86XS8], the negative logarithm of the Kd (pKd) in the assay with ARHGAP21, Q5T5U3 (setting [1]) was 4.49; with MAGI2_6, Q86UL8 (setting [1]) it was 3.81; with SNTB1, Q13884 (setting [1]), “below the threshold”; with LIN7B, Q9HAP6 (setting [1]), 3.89; in the assay with SIPA1L2, Q9P2F8 (setting [1]), 3.54; with PDZD7_3, Q9H5P4 (setting [1]), 4.15. Further, the negative logarithm of the Kd (pKd) result in the assay with NHERF3_3, Q5T2W1 (setting [1]) was “below the threshold”; with DLG4_1, P78352 (setting [1]) it was “below the threshold”; in the assay with CASK, O14936 (setting [1]), “below the threshold”; in the assay with ARHGEF12, Q9NZN5-2 (setting [1]), “below the threshold”; in the assay with PTPN3, P26045 (setting [1]), 4.36; with Inadl_4, Q8NI35 (setting [1]) it was “below the threshold”. Further, the pKd entry with MPP2, Q14168 (setting [1]) is “below the threshold”; with FRMPD2_2, Q68DX3 (setting [1]), 3.59; with APBA1_2, Q02410 (setting [1]), 3.79; in the assay with TX1BP3, O14907 (setting [1]), “below the threshold”; with NHERF3_4, Q5T2W1 (setting [1]) it was “below the threshold”; in the assay with APBA2_2, Q99767 (setting [1]) it was “below the threshold”. The negative-log Kd (pKd) result was “below the threshold” with GRIP2_4, Q9C0E4 (setting [1]); “below the threshold” with PDLIM1, O00151 (setting [1]); “below the threshold” with MPDZ_5, O75970 (setting [1]); “below the threshold” in the assay with GRIP1_5, Q9Y3R0 (setting [1]); 3.53 with MPP7, Q5T2T1 (setting [1]); 4.32 in the assay with MAST2, Q6P0Q8 (setting [1]).
For the molecule EKQAKGDTEF [CACYBP, Q9HB71], the negative logarithm of the Kd (pKd) result with ARHGAP21, Q5T5U3 (setting [2]) is reported as “below the threshold”; in the assay with MAGI2_6, Q86UL8 (setting [2]), “below the threshold”; with SNTB1, Q13884 (setting [2]) it was “below the threshold”; in the assay with LIN7B, Q9HAP6 (setting [2]), “below the threshold”; with SIPA1L2, Q9P2F8 (setting [2]), “below the threshold”; with PDZD7_3, Q9H5P4 (setting [2]), “below the threshold”. Besides, the pKd entry is “below the threshold” in the assay with NHERF3_3, Q5T2W1 (setting [2]); “below the threshold” with DLG4_1, P78352 (setting [2]); “below the threshold” with CASK, O14936 (setting [2]); “below the threshold” with ARHGEF12, Q9NZN5-2 (setting [2]); 4.25 in the assay with PTPN3, P26045 (setting [2]); “below the threshold” with Inadl_4, Q8NI35 (setting [2]). Besides, the pKd entry is reported as “below the threshold” with MPP2, Q14168 (setting [2]); “below the threshold” in the assay with FRMPD2_2, Q68DX3 (setting [2]); “below the threshold” with APBA1_2, Q02410 (setting [2]); “below the threshold” with TX1BP3, O14907 (setting [2]); “below the threshold” with NHERF3_4, Q5T2W1 (setting [2]); “below the threshold” in the assay with APBA2_2, Q99767 (setting [2]). The negative logarithm of the Kd (pKd) result with GRIP2_4, Q9C0E4 (setting [2]) is listed as “below the threshold”; in the assay with PDLIM1, O00151 (setting [2]) it was “below the threshold”; in the assay with MPDZ_5, O75970 (setting [2]), “below the threshold”; with GRIP1_5, Q9Y3R0 (setting [2]) it was “below the threshold”; with MPP7, Q5T2T1 (setting [2]), “below the threshold”; in the assay with MAST2, Q6P0Q8 (setting [2]), “below the threshold”.
